# Data from US9816117B2, “Methods, reagents and cells for biosynthesizing compounds” (INVISTA North America S.á r.l., priority 2014, dated 2017).
# Tests used:
# [1] = carboxylate reductase enzyme activity assay (adipate to adipate semialdehyde); format: biochemical; conditions: purified enzyme enhanced by sfp gene product; 2 mM adipate; room temperature, 20 min; against empty vector control (FIG. 12)
# Procedure: A sequence encoding a HIS-tag was added to the genes from Segniliparus rugosus and Segniliparus rotundus that encode the carboxylate reductases of SEQ ID NOs: 4 and 6, respectively (see FIG. 9), such that N-terminal HIS tagged carboxylate reductases could be produced. Each of the modified genes was cloned into a pET Duet expression vector along with a sfp gene encoding a HIS-tagged phosphopantetheine transferase from Bacillus subtilis, both under the T7 promoter. Each expression vector was transformed into a BL21[DE3] E. coli host and the resulting recombinant E. coli strains were cultivated at 37° C. in a 250 mL shake flask culture containing 50 mL LB media and antibiotic selection pressure, with shaking at 230 rpm. Each culture was induced overnight at 37° C. using an auto-induction media.
# The pellet from each induced shake flask culture was harvested via centrifugation. Each pellet was resuspended and lysed via sonication, and the cell debris was separated from the supernatant via centrifugation. […]
# Enzyme activity assays (i.e., from adipate to adipate semialdehyde) were performed in triplicate in a buffer composed of a final concentration of 50 mM HEPES buffer (pH=7.5), 2 mM adipate, 10 mM MgCl2, 1 mM ATP and 1 mM NADPH. […] The consumption of NADPH was monitored by absorbance at 340 nm.
# [2] = carboxylate reductase enzyme activity assay (adipate semialdehyde to hexanedial); format: biochemical; conditions: purified enzyme enhanced by sfp gene product; 2 mM adipate semialdehyde; room temperature, 20 min; against empty vector control (FIG. 15)
# Procedure: The N-terminal His-tagged carboxylate reductase of SEQ ID NO 6 (see Example 2, Example 3 and FIG. 9) was assayed using adipate semialdehyde as substrate. The enzyme activity assay was performed in triplicate in a buffer composed of a final concentration of 50 mM HEPES buffer (pH=7.5), 2 mM adipate semialdehyde, 10 mM MgCl2, 1 mM ATP and 1 mM NADPH. The enzyme activity assay reaction was initiated by adding purified carboxylate reductase and phosphopantetheine transferase or the empty vector control to the assay buffer containing the adipate semialdehyde and then incubated at room temperature for 20 min. The consumption of NADPH was monitored by absorbance at 340 nm.
molecule,measurement,setting,value
"SEQ ID NO 6: Segniliparus rotundus carboxylate reductase (Genbank Accession No. ADG98140.1) (protein, listed as Segniliparus rotundus) MTQSHTQGPQASAAHSRLARRAAELLATDPQAAATLPDPEVVRQATRPGLRLAERVDAILSGYADRPALGQRSFQTVKDPITGRSSVELLPTFDTITYRELRERATAIASDLAHHPQAPAKPGDFLASIGFISVDYVAIDIAGVFAGLTAVPLQTGATLATLTAITAETAPTLFAASIEHLPTAVDAVLATPSVRRLLVFDYRAGSDEDREAVEAAKRKIADAGSSVLVDVLDEVIARGKSAPKAPLPPATDAGDDSLSLLIYTSGSTGTPKGAMYPERNVAHFWGGVWAAAFDEDAAPPVPAINITFLPLSHVASRLSLMPTLARGGLMHFVAKSDLSTLFEDLKLARPTNLFLVPRVVEMLYQHYQSELDRRGVQDGTREAEAVKDDLRTGLLGGRILTAGFGSAPLSAELAGFIESLLQIHLVDGYGSTEAGPVWRDGYLVKPPVTDYKLIDVPELGYFSTDSPHPRGELAIKTQTILPGYYKRPETTAEVFDEDGFYLTGDVVAQIGPEQFAYVDRRKNVLKLSQGEFVTLAKLEAAYSSSPLVRQLFVYGSSERSYLLAVIVPTPDALKKFGVGEAAKAALGESLQKIARDEGLQSYEVPRDFIIETDPFTVENGLLSDARKSLRPKLKEHYGERLEAMYKELADGQANELRDIRRGVQQRPTLETVRRAAAAMLGASAAEIKPDAHFTDLGGDSLSALTFSNFLHDLFEVDVPVGVIVSAANTLGSVAEHIDAQLAGGRARPTFATVHGKGSTTIKASDLTLDKFIDEQTLEAAKHLPKPADPPRTVLLTGANGWLGRFLALEWLERLAPAGGKLITIVRGKDAAQAKARLDAAYESGDPKLAGHYQDLAATTLEVLAGDFSEPRLGLDEATWNRLADEVDFISHPGALVNHVLPYNQLFGPNVAGVAEIIKLAITTRIKPVTYLSTVAVAAGVEPSALDEDGDIRTVSAERSVDEGYANGYGNSKWGGEVLLREAHDRTGLPVRVFRSDMILAHQKYTGQVNATDQFTRLVQSLLATGLAPKSFYELDAQGNRQRAHYDGIPVDFTAESITTLGGDGLEGYRSYNVFNPHRDGVGLDEFVDWLIEAGHPITRIDDYDQWLSRFETSLRGLPESKRQASVLPLLHAFARPGPAVDGSPFRNTVFRTDVQKAKIGAEHDIPHLGKALVLKYADDIKQLGLL","carboxylate reductase activity: acceptance of adipate as substrate (consumption of NADPH, absorbance at 340 nm)",[1],accepted adipate as substrate
same,"carboxylate reductase activity: acceptance of adipate semialdehyde as substrate (consumption of NADPH, absorbance at 340 nm)",[2],accepted adipate semialdehyde as substrate
